Results: paper PMC5191963 (Hepatology (Baltimore, Md.), 2016)
Substitutions are numbered along the chain they refer to. Numbers in names are those of the source. Read-outs that look alike come from different tables or passages of the source. Each block holds one binder with its values, some of them ahead of it.

Assays:
Experiment in all cases: BLI
[1] = molecular target: T1, GST-tagged AIM2 (Invitrogen) (UniProt O14862 1-343)
T1 sequence (looked up): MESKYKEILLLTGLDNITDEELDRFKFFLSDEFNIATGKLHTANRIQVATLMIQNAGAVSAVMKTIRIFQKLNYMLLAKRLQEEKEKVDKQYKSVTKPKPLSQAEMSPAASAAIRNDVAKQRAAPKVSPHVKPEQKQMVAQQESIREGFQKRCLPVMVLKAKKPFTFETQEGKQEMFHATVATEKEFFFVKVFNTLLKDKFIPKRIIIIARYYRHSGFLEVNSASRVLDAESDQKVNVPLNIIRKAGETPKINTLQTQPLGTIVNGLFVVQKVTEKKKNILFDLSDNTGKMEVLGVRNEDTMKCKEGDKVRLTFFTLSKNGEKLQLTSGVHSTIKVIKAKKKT

[2] = molecular target: T1, GST-tagged AIM2 (Invitrogen); remark: listed apart in the source
[3] = molecular target: T1, GST-tagged AIM2 (Invitrogen); remark: listed apart in the source
[4] = molecular target: T1, GST-tagged AIM2 (Invitrogen); remark: listed apart in the source
[5] = molecular target: T1, GST-tagged AIM2 (Invitrogen); remark: listed apart in the source

B1: Recombinant HMGB1 A box (disulfide form, not treated with DTT) (domain or fragment)
chain: MGKGDPKKPRGKMSSYAFFVQTCREEHKKKHPDASVNFSEFSKKCSERWKTMSAKEKGKFEDMAKADKARYEREMKTYI
modifications: disulfide form (the paper calls the A box without DTT its disulfide form)
Kd [1]: 41 nM
koff [1]: 0.00261 s⁻¹
kon [1]: 64000 M⁻¹ s⁻¹

B2: Recombinant HMGB1 (disulfide HMGB1, not treated with DTT) (natural protein, human, UniProt P09429 1-215, looked up)
chain: MGKGDPKKPRGKMSSYAFFVQTCREEHKKKHPDASVNFSEFSKKCSERWKTMSAKEKGKFEDMAKADKARYEREMKTYIPPKGETKKKFKDPNAPKRPPSAFFLFCSEYRPKIKGEHPGLSIGDVAKKLGEMWNNTAADDKQPYEKKAAKLKEKYEKDIAAYRAKGKPDAAKKGVVKAEKSKKKKEEEEDEEDEEDEEEEEDEEDEDEEEDDDDE
modifications: disulfide bond between cysteines 23 and 45 (the paper calls the protein without DTT disulfide HMGB1)
Kd [2]: 20 nM
koff [2]: 0.00034 s⁻¹
kon [2]: 17000 M⁻¹ s⁻¹
Kd [3]: 8 nM
koff [3]: 0.00014 s⁻¹
kon [3]: 17000 M⁻¹ s⁻¹
Kd [4]: 25 nM
koff [4]: 0.00033 s⁻¹
kon [4]: 13000 M⁻¹ s⁻¹
Kd [1]: 23 nM
koff [1]: 0.00034 s⁻¹
kon [1]: 14000 M⁻¹ s⁻¹

B3: Recombinant HMGB1, fully reduced all-thiol form (5 mM DTT) (natural protein, human, UniProt P09429 1-215, looked up)
chain: B2 chain
Kd [5]: 13 nM
koff [5]: 0.00038 s⁻¹
kon [5]: 30000 M⁻¹ s⁻¹

The remaining lines, values ahead:

Kd [1]: 13 nM
koff [1]: 0.00036 s⁻¹
kon [1]: 27000 M⁻¹ s⁻¹
B4: Recombinant HMGB1(C45S) (natural protein, human, UniProt P09429 1-215, looked up)
chain: B2 chain with C45S

Kd [1]: 12 nM
koff [1]: 0.0003 s⁻¹
kon [1]: 25000 M⁻¹ s⁻¹
B5: Recombinant HMGB1(C23S) (natural protein, human, UniProt P09429 1-215, looked up)
chain: B2 chain with C23S
